Data published in EP1736545A2.

Legend:
[1] = biological target: zcytor11 and CRF2-4 receptors co-expressed on transfected BaF3 or BHK cells (human) (UniProt Q08334); test: cell-based or functional assay
IL-TIF protein (human) = IL-TIF protein (human) (UniProt Q9GZX6); test: cell-based or functional assay
Sequence of IL-TIF protein (human) (Q9GZX6 34-179 limits assumed, form in doubt): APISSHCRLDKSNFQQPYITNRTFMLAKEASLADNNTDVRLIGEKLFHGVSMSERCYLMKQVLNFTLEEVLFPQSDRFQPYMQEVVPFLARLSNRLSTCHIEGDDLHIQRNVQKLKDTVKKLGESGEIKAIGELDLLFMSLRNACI

Sequence of zcytor11 and CRF2-4 receptors co-expressed on transfected BaF3 or BHK cells (human) (chain, as listed by the source limits assumed, form in doubt, chain 1 of 2): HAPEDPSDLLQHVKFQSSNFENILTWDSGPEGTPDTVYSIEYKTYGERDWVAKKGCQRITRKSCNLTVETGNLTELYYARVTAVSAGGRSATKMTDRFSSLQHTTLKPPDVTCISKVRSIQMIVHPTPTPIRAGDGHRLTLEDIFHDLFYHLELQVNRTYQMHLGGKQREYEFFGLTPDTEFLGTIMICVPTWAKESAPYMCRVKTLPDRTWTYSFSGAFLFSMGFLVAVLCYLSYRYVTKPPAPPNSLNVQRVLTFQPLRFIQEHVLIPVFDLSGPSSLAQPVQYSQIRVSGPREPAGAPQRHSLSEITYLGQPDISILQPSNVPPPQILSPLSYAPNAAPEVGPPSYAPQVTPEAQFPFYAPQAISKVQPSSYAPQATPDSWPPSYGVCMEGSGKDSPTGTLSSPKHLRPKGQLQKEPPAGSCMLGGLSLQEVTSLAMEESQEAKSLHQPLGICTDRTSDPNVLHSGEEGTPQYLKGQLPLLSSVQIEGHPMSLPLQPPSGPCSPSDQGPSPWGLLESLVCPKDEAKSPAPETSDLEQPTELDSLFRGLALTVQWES
Sequence of zcytor11 and CRF2-4 receptors co-expressed on transfected BaF3 or BHK cells (human) (Q08334 20-325 limits assumed, form in doubt, chain 2 of 2): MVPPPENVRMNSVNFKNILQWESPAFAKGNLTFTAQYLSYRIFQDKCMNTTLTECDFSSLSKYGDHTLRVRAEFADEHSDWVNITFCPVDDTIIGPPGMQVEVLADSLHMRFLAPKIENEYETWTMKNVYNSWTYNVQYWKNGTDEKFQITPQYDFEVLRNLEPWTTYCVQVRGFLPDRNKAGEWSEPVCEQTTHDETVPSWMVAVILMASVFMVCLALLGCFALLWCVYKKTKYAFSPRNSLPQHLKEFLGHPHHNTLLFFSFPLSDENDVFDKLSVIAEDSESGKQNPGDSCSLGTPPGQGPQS

Substance	proliferation of BaF3/CRF2-4/zcytor11 cells (Alamar Blue), IL-TIF at 100 pg/ml (fold over background) [1]	inhibition of IL-TIF-induced proliferation of BaF3/CRF2-4/zcytor11 cells (Alamar Blue): concentration at which inhibition was barely detectable (IL-TIF protein (human)) [ng/mL]	inhibition of IL-TIF-induced proliferation of BaF3/CRF2-4/zcytor11 cells (Alamar Blue): concentrations giving complete inhibition (IL-TIF protein (human)) [ng/mL]	inhibition of IL-TIF-induced proliferation of BaF3/CRF2-4/zcytor11 cells (Alamar Blue): concentrations giving partial inhibition (IL-TIF protein (human)) [ng/mL]
IL-TIF protein (from UniProt Q9GZX6 34-179) (ligand)	30			
CRF2-4/zcytor11-Fc soluble receptor heterodimer (Fc fusion)		1.6	25 to 200	3.1 to 12.5
